From publication PMC9561264
One block for each substance: values may come before it.

How the values were obtained:
[1] = molecular target: hOGG1 (human oxoguanine glycosylase 1), wildtype (human) (UniProt O15527); assay: fluorescence polarisation; reducing conditions (5 mM DTT); 5 nM Ni-NTA AF488 labelled his6-hOGG1, unlabelled protein titrated (Myc 1.22 nM-2 uM, LSD1 1.38 nM-60 uM, hOGG1 0.24 nM-8 uM); 20 mM Tris-HCl pH 7.6, 200 mM NaCl; 25 C; single Hill fit
[2] = molecular target: hOGG1 (human oxoguanine glycosylase 1), wildtype (human) (UniProt O15527); assay: fluorescence polarisation; oxidising conditions (5 uM H2O2); 5 nM Ni-NTA AF488 labelled his6-hOGG1, unlabelled protein titrated (Myc 1.22 nM-2 uM, LSD1 1.38 nM-60 uM, hOGG1 0.24 nM-8 uM); 20 mM Tris-HCl pH 7.6, 200 mM NaCl; 25 C; single Hill fit
[3] = molecular target: hOGG1 (human oxoguanine glycosylase 1), wildtype (human) (UniProt O15527); assay: FP; reducing; settings: domain or fragment
[4] = molecular target: hOGG1 (human oxoguanine glycosylase 1), wildtype (human) (UniProt O15527); assay: FP; oxidising; settings: domain or fragment
hOGG1 wild type (human) = hOGG1 wild type (human) (UniProt O15527); assay: AFM; settings: 150 nM hOGG1, 8-oxoguanine at ~50% (49.8%) of length, FP at 25°C with 5 nM labelled DNA, EMSA room temp 30 min, 15% native PAGE 0.5x TBE 4°C, interaction buffer 20 mM Tris-HCl pH 7.6, 200 mM NaCl (Fig. S12) …
Chain of hOGG1 wild type (human) (O15527 whole entry): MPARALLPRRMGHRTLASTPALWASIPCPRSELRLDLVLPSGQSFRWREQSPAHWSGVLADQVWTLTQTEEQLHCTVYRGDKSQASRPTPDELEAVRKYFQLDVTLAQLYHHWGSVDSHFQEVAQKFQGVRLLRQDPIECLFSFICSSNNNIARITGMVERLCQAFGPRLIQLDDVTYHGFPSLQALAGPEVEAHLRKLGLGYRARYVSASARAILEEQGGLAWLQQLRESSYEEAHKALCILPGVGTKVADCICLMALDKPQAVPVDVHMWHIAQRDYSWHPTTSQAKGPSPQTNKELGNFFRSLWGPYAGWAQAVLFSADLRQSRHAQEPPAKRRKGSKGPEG

Chain of hOGG1 (human oxoguanine glycosylase 1), wildtype (human) (O15527 whole entry, the tested form may be a part): as the sequence (O15527 whole entry) above
Chain of GST tagged full length c-Myc (P01106 whole entry): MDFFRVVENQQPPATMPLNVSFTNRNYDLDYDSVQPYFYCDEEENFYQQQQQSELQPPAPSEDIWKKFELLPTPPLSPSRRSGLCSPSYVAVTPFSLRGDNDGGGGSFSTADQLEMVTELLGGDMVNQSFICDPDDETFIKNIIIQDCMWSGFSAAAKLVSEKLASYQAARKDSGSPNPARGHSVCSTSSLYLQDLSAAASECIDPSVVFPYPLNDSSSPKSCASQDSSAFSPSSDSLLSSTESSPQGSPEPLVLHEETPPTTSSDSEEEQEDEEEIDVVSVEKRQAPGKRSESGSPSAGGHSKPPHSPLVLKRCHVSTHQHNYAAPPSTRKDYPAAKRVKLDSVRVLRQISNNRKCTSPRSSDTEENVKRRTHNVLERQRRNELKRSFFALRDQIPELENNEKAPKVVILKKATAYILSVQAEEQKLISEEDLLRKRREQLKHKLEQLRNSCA
Chain of isolated N-terminal domain of Myc (P01106 16-158): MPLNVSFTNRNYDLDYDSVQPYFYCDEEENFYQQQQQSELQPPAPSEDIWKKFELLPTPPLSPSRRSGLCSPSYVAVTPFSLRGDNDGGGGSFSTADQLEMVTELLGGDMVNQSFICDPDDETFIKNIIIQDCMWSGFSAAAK

- Kd [1]: 1060 nM
- Kd [2]: 662 nM
Substance: GST tagged full length c-Myc (from UniProt P01106 1-454) (natural protein; Ni-NTA AlexaFluor 488 dye on the his6 tag (labelled copy in fluorescence polarisation); other documents disagree on this pair)

- Kd [3]: 1070 nM
- Kd [4]: 705 nM
Substance: isolated N-terminal domain of Myc

Substance: oxoG 505 bp AFM substrate
- binding signal (counts/DNA at oxoG) (hOGG1 wild type (human); oxidising, specificity 368 ± 74): 0.1
- binding signal (counts/DNA at oxoG) (hOGG1 wild type (human); reducing, specificity 543 ± 37): 0.18
